Test results taken from the supplement of paper PMC12042874.
± gives the uncertainty stated by the source.

Assay: amyloid nucleation score (Sup35N fusion, yeast selection) (log enrichment); library NNK2; higher = more nucleation; inactive = no reads after selection
Procedure, shortened: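 Growth for 7 days at 30°C on medium lacking adenine and uracil followed a 24-hour induction with 100 μM copper sulfate of psi-negative yeast expressing peptides of 20 random codons fused to Sup35N. Input and output plasmid inserts were sequenced with Illumina, and sequences with under 100 input reads were excluded. Nucleation score is the DiMSum log enrichment of output over input reads, centred on the mode score of non-aggregating sequences.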

Substance: AKVVHTVWACIAS
- amyloid nucleation score: -0.943 ± 0.78

Substance: HCNCHRIVYLECVLPYIHCI
- amyloid nucleation score: -0.919 ± 0.55

Substance: NQTNSGQRVY
- amyloid nucleation score: -0.208 ± 1.1

Substance: RGLRMYERGSVTWSFDFMEG
- amyloid nucleation score: 5.44 ± 0.077

Substance: LSCRWHCIVTLDVAAYNEPE
- amyloid nucleation score: 5.765 ± 0.044

Substance: GYASTSKAKISAIRAIRP
- amyloid nucleation score: 0.339 ± 0.31

Substance: LYNRRPFPYGYGTGLCPQRI
- amyloid nucleation score: -0.047 ± 0.79

Substance: FLNMTIRVLAWFVYTI
- amyloid nucleation score: inactive

Substance: ARRCSFWYIISVQRF
- amyloid nucleation score: inactive

Substance: DAYQEKCLCFVHRCYAQGRC
- amyloid nucleation score: 0.163 ± 0.39

Substance: YNSLVRMRTRYIGR
- amyloid nucleation score: 0.025 ± 0.46

Substance: VKSMFLYTASSADPERGVYG
- amyloid nucleation score: -1.27 ± 1.1

Substance: LLFIVCRISLNIVGQVA
- amyloid nucleation score: -0.137 ± 0.53

Substance: FSNVLRFSIA
- amyloid nucleation score: -1.27 ± 0.45

Substance: EVGKNRTSHIL
- amyloid nucleation score: -0.134 ± 0.55

Substance: AEDMSQARA
- amyloid nucleation score: 1.15 ± 0.15

Substance: GLLNMCINCGRLFASPGISG
- amyloid nucleation score: -0.285 ± 0.35

Substance: MKVVNCGCKHIFLRHCYALR
- amyloid nucleation score: -0.605 ± 0.45

Substance: PTPYKGRLLFPHHSGLYLIG
- amyloid nucleation score: -1.23 ± 1.1

Substance: VWTIPRS
- amyloid nucleation score: 0.012 ± 0.5

Substance: STSECLK
- amyloid nucleation score: inactive

Substance: VANDLQPWLRAVHSCFWYSS
- amyloid nucleation score: 0.896 ± 0.17

Substance: IKDKSHLRRIVLVTEYTRRD
- amyloid nucleation score: 0.179 ± 0.34

Substance: NNFEI
- amyloid nucleation score: -0.672 ± 0.6

Substance: LRHWCE
- amyloid nucleation score: 0.218 ± 0.18

Substance: VVMLVRT
- amyloid nucleation score: 3.87 ± 0.064

Substance: SLVKVGDKRYMFVSTQGKSL
- amyloid nucleation score: 0.055 ± 0.42

Substance: GPSMCFGEFKVYAEVSWSQA
- amyloid nucleation score: 0.095 ± 0.34

Substance: QRHAVWGSSGDLTYELIGSL
- amyloid nucleation score: inactive

Substance: SYTNLGPAGCVALSKYSVIR
- amyloid nucleation score: -1.18 ± 1.1

Substance: RFWLESIWLDNL
- amyloid nucleation score: 0.25 ± 0.42

Substance: NTFDVVMT
- amyloid nucleation score: 0.411 ± 0.51

Substance: SMIIARILHITCFYRAHRRV
- amyloid nucleation score: -0.721 ± 0.64

Substance: NHRQDKLQNHVSGLPSIGSL
- amyloid nucleation score: 0.059 ± 0.36

Substance: IGVIKGFYWHK
- amyloid nucleation score: -0.343 ± 1.1

Substance: DGSDREPKVSALWLHVRRTA
- amyloid nucleation score: 2.17 ± 0.13

Substance: YVRFEVLRWLLYRYTMVSQD
- amyloid nucleation score: 0.661 ± 0.49

Substance: EVRWASAPRNCCR
- amyloid nucleation score: 0.79 ± 0.26

Substance: LNFDLLTMFWT
- amyloid nucleation score: 0.182 ± 0.79

Substance: LWILNNFGTIIFRTSHYKGV
- amyloid nucleation score: 7.4 ± 0.078

Substance: TDLWFRLATRCNDNDAFFL
- amyloid nucleation score: -0.981 ± 1.1

Substance: LLHDDVNTYLVRTVRR
- amyloid nucleation score: 0.322 ± 0.31

Substance: CGLCMEGYSHEMIDRLSSIS
- amyloid nucleation score: 0.227 ± 0.56

Substance: NGILRRCMSKLSRAWPDGLE
- amyloid nucleation score: 10.71 ± 0.046

Substance: GLLEVIF
- amyloid nucleation score: 0.119 ± 0.74

Substance: CGVIKHPLSGYYKRASMLCN
- amyloid nucleation score: -1.52 ± 1.1

Substance: IWRAQTSWSSSMFTWAVGLR
- amyloid nucleation score: 1.4 ± 0.33

Substance: SSVSRLR
- amyloid nucleation score: -0.277 ± 0.74

Substance: FVRQNVSFTLGKYYQWVVGM
- amyloid nucleation score: -0.933 ± 0.24

Substance: VSMSRGL
- amyloid nucleation score: inactive

Substance: GRWLSFKFSDDRQRVRYRVH
- amyloid nucleation score: -0.158 ± 0.63

Substance: LFPLI
- amyloid nucleation score: 1.24 ± 0.44

Substance: VRLLLYWVAVRWRETDCCCS
- amyloid nucleation score: 0.315 ± 0.48

Substance: PVFAFQYLSLCKWDLF
- amyloid nucleation score: -0.976 ± 1

Substance: LYYASGRIRFCLHWHLIARV
- amyloid nucleation score: 4.894 ± 0.041

Substance: GALNISLDTLMVSRCYFHSP
- amyloid nucleation score: 0.945 ± 0.31

Substance: DWRSLRLGVK
- amyloid nucleation score: -0.065 ± 0.32

Substance: YSDISQTRSASAIALGECRG
- amyloid nucleation score: -0.879 ± 0.64

Substance: LNPRNQCERRCFSVSGLKWY
- amyloid nucleation score: -0.899 ± 0.64

Substance: YWCLA
- amyloid nucleation score: -0.737 ± 0.45

Substance: IRRWFRLNNGRM
- amyloid nucleation score: -0.113 ± 0.79

Substance: RFPCRLLRASLFP
- amyloid nucleation score: -0.636 ± 0.45

Substance: SMVTFDYV
- amyloid nucleation score: inactive

Substance: VRARYASLCHGIAAEGIVGV
- amyloid nucleation score: 0.506 ± 0.28

Substance: PMWRVFAFYRWVALMSLTRI
- amyloid nucleation score: inactive

Substance: RWFDRV
- amyloid nucleation score: 0.664 ± 0.31

Substance: LCAWDWSGTRVR
- amyloid nucleation score: 0.903 ± 0.67

Substance: VLSEYGDTNYKIQGRATCGK
- amyloid nucleation score: 0.928 ± 0.6

Substance: FGDLGLIVRDSKSLLGSIKQ
- amyloid nucleation score: 0.053 ± 0.79

Substance: AGGEEIGGVSRS
- amyloid nucleation score: -1.07 ± 0.49

Substance: RFTNSESRNYRA
- amyloid nucleation score: 4.24 ± 0.069

Substance: LDMSQYYSSRVF
- amyloid nucleation score: inactive

Substance: SNQCTWNDYSG
- amyloid nucleation score: -0.565 ± 0.64

Substance: VVIFCVVFWV
- amyloid nucleation score: 0.129 ± 0.76

Substance: RFFNPNMLKFALSGQ
- amyloid nucleation score: -1.37 ± 0.44

Substance: HIKLYSDYTCKLMPSLTWQR
- amyloid nucleation score: 4.8 ± 0.08

Substance: GSASSCGCMMWQCKAICPNS
- amyloid nucleation score: -0.4 ± 0.63

Substance: SRSGCHYCAVYTQIVLPRAP
- amyloid nucleation score: 8.711 ± 0.081

Substance: SGAYSDGWYRQHFMVQL
- amyloid nucleation score: inactive

Substance: LPQVPRVFRS
- amyloid nucleation score: -0.06 ± 1.1

Substance: SMYCTPFILCYNPHSNRVAH
- amyloid nucleation score: 9.811 ± 0.037

Substance: EFRTAFLVI
- amyloid nucleation score: 0.138 ± 1.1

Substance: RLFRAFNLCYAAIRVGASPQ
- amyloid nucleation score: 0.287 ± 0.26

Substance: LLMFAMYIQIRLLSTATYIV
- amyloid nucleation score: -0.564 ± 0.79

Substance: HTLGIWLKREPWGMMYGLRG
- amyloid nucleation score: 0.165 ± 1

Substance: YYISKKSMMMDEVRCWMTWF
- amyloid nucleation score: -0.524 ± 0.27
